Test results taken from paper PMC7689096, “Cyclizing Painkillers: Development of Backbone-Cyclic TAPS Analogs” (Frontiers in Chemistry, 2020).
Several values for one entry are separate records, joined by “and”; a condition that tells them apart may be missing. Equal values may be shown once. Numbered stars: 1 amine (or outer) side, 2 acyl side, 3 side chain; on linkers, the order of the positions; unused ones are H or OH. Bridge positions count the residues as written; N and C are the ends. Square brackets hold non-standard residues; d marks the D form. Primed or numbered codes have the meaning given here. Ends that are not written are not given here. dR(Nα-6-aminohexyl) = N=C(N)NCCC[C@H](C(=O)[*:2])N(CCCCCCN[*:3])[*:1]; dR(Nα-3-aminopropyl) = N=C(N)NCCC[C@H](C(=O)[*:2])N(CCCN[*:3])[*:1]; N(6-aminohexyl)Gly = O=C(CN(CCCCCCN[*:3])[*:1])[*:2]; NGly(3-aminopropyl) = O=C(CN(CCCN[*:3])[*:1])[*:2]; N(2-Aminoethyl)Gly = O=C(CN(CCN[*:3])[*:1])[*:2]; Gly(N-2-aminoethyl)′ = not defined here; CO = O=C([*:1])[*:2]; Nlys = NCCCCNCC(=O)O; Sar = CNCC(=O)O

Key:
[1] = target: T1, δ (DOP, OPRD2) opioid receptor (Mus musculus, UniProt P32300); assay: DOP opioid receptor functional antagonism in NG-10815 cells; assay type: cell-based, rat; conditions: Between 10^−9-10^−6 M, percent inhibition of control specific agonist response
T1 construct: NG-10815 cells which express significant endogenous levels of δ opioid receptors; host or cells: NG-10815 (NG108-15) mouse N18TG2 neuroblastoma x rat C6-BU-1 glioma hybrid cells
T1 sequence (P32300 whole entry): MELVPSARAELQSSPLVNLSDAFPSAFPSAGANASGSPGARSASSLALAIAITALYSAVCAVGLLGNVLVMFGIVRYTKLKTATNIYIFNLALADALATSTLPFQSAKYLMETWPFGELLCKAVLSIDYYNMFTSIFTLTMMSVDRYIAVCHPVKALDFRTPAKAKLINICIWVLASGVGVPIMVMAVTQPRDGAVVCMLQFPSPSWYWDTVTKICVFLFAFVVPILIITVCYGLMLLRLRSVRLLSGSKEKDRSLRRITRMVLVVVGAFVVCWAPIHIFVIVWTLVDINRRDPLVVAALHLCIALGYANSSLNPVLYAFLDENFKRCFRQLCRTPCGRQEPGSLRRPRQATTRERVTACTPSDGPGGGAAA
Experimental: (§1) Peptides were tested for μ (MOP, OPRM1) and δ (DOP, OPRD2) opioid receptor activation functional agonism and antagonism using CHO cells expressing human recombinant μ receptors and NG-10815 cells which express significant endogenous levels of δ opioid receptors. The cultures were incubated for 10 min at 37°C followed by impedance measurements of CHO cells and cAMP was assayed by the HTRF method using NG-10815 cells, according to CEREP standard assay protocols. The respective reference, non-peptide small molecules were tested concurrently with the TAPS analogs. The agonist compounds were: DPDPE (selective agonist of DOP receptor) and DAMGO (high MOP receptor specificity) and the antagonist compounds were: Naltrindole (selective DOP receptor antagonist) and CTOP (MOP receptor antagonist). […] The results are expressed as a percentage of respective control-specific response. […] These findings indicate that TAPS cyclic peptides are MOP selective full agonists. […] The cyclic TAPS peptide had lower activity than the linear parent TAPS peptide (90 ± 5%) – a finding that can be attributed to their restricted conformation relative to the flexible linear peptide conformation.
(§2) The respective reference, non-peptide small molecules were tested concurrently with the TAPS analogs; Agonist compounds DPDPE ([D-Pen2,D-Pen5]enkephalin), selective agonist of DOP receptor at 2 × 10^−9 M and DAMGO ([D-Ala2, N-MePhe4, Gly-ol] enkephalin), high MOP specificity at 2.5 × 10^−9 M; Antagonist compounds: naltrindole 7-(cyclopropylmethyl)-6,7-dehydro-4,5α-epoxy-3,14-dihydroxy-6,7-2′,3′-indolomorphinan hydrochloride, selective DOP antagonist, 5 × 10^−10 M and CTOP (D-Phe-Cys-Tyr-D-Trp-Orn-Thr-Pen-Thr-NH2), MOP antagonist at 3.4 × 10^−7 M. Depending on the assay volume and solvent tolerance, the stock solutions were diluted to [100×], [333×] or [1,000×] in 100% DMEM solvent, then either added directly or further diluted to [10×] or [5×] in H2O or Hank's balanced salt solution (HBSS) before addition to the assay well (final solvent concentration kept constant). The cultures were incubated for 10 min at 37°C followed by impedance measurements using cellular dielectric spectroscopy of CHO cells and cAMP was assayed by homogeneous time resolved fluorescence (HTRF) method using NG-10815 cells, according to CEREP standard assay protocols (https://euroscreenfast.com/assays/opioid-orl1-camp-fast-0360c; https://euroscreenfast.com/assays/opioid-op1-delta-camp-fast-0379c). The results (mean of three experiments) are expressed as a percent of control specific agonist response [(measured TAPS specific response/control specific agonist response) × 100] and as a percent inhibition of control specific agonist response [100 – (measured TAPS specific response/control specific agonist response) × 100] obtained in the presence of the TAPS compounds. Results showing a stimulation or an inhibition lower than 25% were considered not significant and mostly attributable to variability of the signal around the control level. Results showing a stimulation or an inhibition higher than 50% were considered to represent significant effects of the TAPS compounds.

[2] = target: T2, human recombinant μ (MOP, OPRM1) receptor (Homo sapiens, UniProt P35372); assay: MOP opioid receptor functional agonism in CHO cells expressing human recombinant μ receptors; assay type: cell-based; conditions: At 10^−6 M, percent of control specific agonist response, values lower than 25% not significant
T2 construct: host or cells: CHO cells
T2 sequence (P35372 whole entry): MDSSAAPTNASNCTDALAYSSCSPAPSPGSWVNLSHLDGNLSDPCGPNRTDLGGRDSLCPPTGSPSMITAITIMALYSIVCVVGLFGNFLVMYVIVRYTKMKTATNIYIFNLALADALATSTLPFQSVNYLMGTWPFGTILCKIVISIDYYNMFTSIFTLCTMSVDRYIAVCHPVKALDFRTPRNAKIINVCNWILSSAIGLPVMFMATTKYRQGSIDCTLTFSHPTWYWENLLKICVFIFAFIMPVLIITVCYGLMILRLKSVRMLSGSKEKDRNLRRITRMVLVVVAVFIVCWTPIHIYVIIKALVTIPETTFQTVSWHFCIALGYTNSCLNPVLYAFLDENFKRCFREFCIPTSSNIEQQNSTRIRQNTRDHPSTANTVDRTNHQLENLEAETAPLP
Experimental: as §1
Evaluation of the Agonist Activity of Compounds at the Human μ Receptor in Transfected CHO Cells, Determined by Measuring Their Effects on cAMP modulation Using the HTRF Detection Method
Thereafter, the adenylyl cyclase activator NKH 477 is added at a final concentration of […]. Following 10 min incubation at 37°C, the cells are lysed and the fluorescence acceptor (D2-labeled cAMP) and fluorescence donor (anti-cAMP antibody labeled with europium cryptate) are added. After 60 min at room temperature, the fluorescence transfer is measured at lex = 337 nm and lem = 620 and 665 nm using a microplate reader (Rubystar, BMG). The cAMP concentration is determined by dividing the signal measured at 665 nm by that measured at 620 nm (ratio). The results are expressed as a percent of the control response to 1 μM DAMGO. The standard reference agonist is DAMGO, which is tested in each experiment at several concentrations to generate a concentration-response curve from which its EC50 value is calculated.
as §2, with “Results showing a stimulation or an inhibition lower than 25% were considered not significant and mostly attributable to variability of the signal around the control level. Results showing a stimulation or an inhibition higher than 50% were considered to represent significant effects of the TAPS compounds.” left out

[3] = target: T2, human recombinant μ (MOP, OPRM1) receptor; assay: MOP opioid receptor functional antagonism in CHO cells expressing human recombinant μ receptors; assay type: cell-based; conditions: Between 10^−9-10^−6 M, percent inhibition of control specific agonist response, values lower than 25% not significant
Experimental: as §1, §2

[4] = target: T1, δ (DOP, OPRD2) opioid receptor; assay: DOP opioid receptor functional agonism in NG-10815 cells; assay type: cell-based, rat; conditions: At 10^−6 M, percent of control specific agonist response
Experimental: as §1
Evaluation of the Agonist Activity of Compounds at the Rat delta2 Receptor Endogenously Expressed in NG-10815 Cells, Determined by Measuring Their Effects on Impedance Modulation Using the CellKey (CDS) Detection Method
Cells are seeded onto 96-well plate coated with fibronectin at 2 × 10^5 cells/well in HBSS buffer (Invitrogen) + 20 mM HEPES (Invitrogen) with 0.1% BSA and allowed to equilibrate for 60 min at 37°C before the start of the experiment. Plates are placed onto the system and measurements are made at a temperature of 37°C. […] Impedance measurements are monitored for 10 min after ligand addition. The standard reference agonist is DPDPE, which is tested in each experiment at several concentrations to generate a concentration-response curve from which its EC50 value is calculated.
as §2, with “The results (mean of three experiments) are expressed as a percent of control specific agonist response [(measured TAPS specific response/control specific agonist response) × 100] and as a percent inhibition of control specific agonist response [100 – (measured TAPS specific response/control specific agonist response) × 100] obtained in the presence of the TAPS compounds. Results showing a stimulation or an inhibition lower than 25% were considered not significant and mostly attributable to variability of the signal around the control level. Results showing a stimulation or an inhibition higher than 50% were considered to represent significant effects of the TAPS compounds.” left out

[5] = target: human recombinant μ opioid receptor (human) (UniProt P35372)
Sequence of human recombinant μ opioid receptor (human) (P35372 whole entry): as above

Row | Molecule | DOP antagonist (%) [1] | MOP agonist (%) [2] | MOP agonist (%) at 10^-6 M: percent of control specific agonist response (DAMGO), CHO cells expressing human recombinant μ receptors; values lower than 25% are not significant [5] | other results
1 | TAPS c(4-6): backbone-cyclic TAPS analog, urea bridge; ring size 20 (YRF[Nlys]-NH2; bridge 2-4 via CO; not fully specified (residue 2); also: urea bridge between the two N-alkyl chains) | 3% | 1% | – | MOP antagonist (%) [3]: 1%
2 | TAPS c(3-6): backbone-cyclic TAPS analog, urea bridge; ring size 19 (YRF[NGly(3-aminopropyl)]-NH2; bridge 2-4 via CO; not fully specified (residue 2); also: urea bridge between the two N-alkyl chains) | 1% | 1% | – | MOP antagonist (%) [3]: 2%
3 | TAPS c(4-3): backbone-cyclic TAPS analog, urea bridge; ring size 17 (YRF[Nlys]-NH2; bridge 2-4 via CO; not fully specified (residue 2); also: urea bridge between the two N-alkyl chains) | 0% | 63 ± 5% and 63^** % | – | DOP agonist (%) [4]: 11%
4 | TAPS c(6-3): backbone-cyclic TAPS analog, urea bridge; ring size 19 (YRF[N(6-aminohexyl)Gly]-NH2; bridge 2-4 via CO; not fully specified (residue 2); also: urea bridge between the two N-alkyl chains) | 8% | 75 ± 9% and 75^** % | – | DOP agonist (%) [4]: 19%
5 | TAPS c(2-3): backbone-cyclic TAPS analog, urea bridge; n-m alkyl chain lengths on nitrogens of Gly and Arg; ring size 15 (YRF[N(2-Aminoethyl)Gly]-NH2; bridge 2-4 via CO; not fully specified (residue 2); also: urea bridge between the two N-alkyl chains) | 2% | 24% | – | MOP antagonist (%) [3]: 1%
6 | Y[dR(Nα-3-aminopropyl)]F[Gly(N-3-aminopropyl)] (bridge 2-4 via CO; not fully specified) [TAPS c(3-3)] | – | – | 1% | –
7 | Y[dR(Nα-6-aminohexyl)]F[Gly(N-6-aminohexyl)] (bridge 2-4 via CO; not fully specified) [TAPS c(6-6)] | – | – | 21% | –
8 | Y[dR(Nα-3-aminopropyl)]F[Gly(N-4-aminobutyl)] (bridge 2-4 via CO; not fully specified) [TAPS c(4-3)] | – | – | – | MOP agonist (%) at 10^-6 M: percent of control specific agonist response (DAMGO), CHO cells expressing human recombinant μ receptors [5]: 63%
9 | Y[dR(Nα-6-aminohexyl)]F[Gly(N-3-aminopropyl)] (bridge 2-4 via CO; not fully specified) [TAPS c(3-6)] | – | – | 1% | –
10 | Y[dR(Nα-6-aminohexyl)]F[Gly(N-2-aminoethyl)′]-NH2 (bridge 2-4 via CO; not fully specified) [TAPS c(2-6)] | – | – | – | MOP agonist (%) at 10^-6 M: percent of control specific agonist response (DAMGO), CHO cells expressing human recombinant μ receptors [5]: 48%
11 | Y[dR(Nα-3-aminopropyl)]F[Gly(N-6-aminohexyl)] (bridge 2-4 via CO; not fully specified) [TAPS c(6-3)] | – | – | – | MOP agonist (%) at 10^-6 M: percent of control specific agonist response (DAMGO), CHO cells expressing human recombinant μ receptors [5]: 75%
12 | Y[dR(Nα-6-aminohexyl)]F[Gly(N-4-aminobutyl)] (bridge 2-4 via CO; not fully specified) [TAPS c(4-6)] | – | – | 1% | –
13 | Y[dR(Nα-3-aminopropyl)]F[Gly(N-2-aminoethyl)′] (bridge 2-4 via CO; not fully specified) [TAPS c(2-3)] | – | – | 24% | –
14 | Y[dR]F[Sar] [linear peptide Tyr-D-Arg-Phe-Sar (TAPS)] | – | – | – | MOP agonist (%) at 10^-6 M: percent of control specific agonist response (DAMGO), CHO cells expressing human recombinant μ receptors [5]: 90%
